This note sets out measurements from PMC4448153.

The target of this data set is T1, RamB-His (Corynebacterium glutamicum ATCC 13032?) (UniProt Q8NTD8).
T1 sequence: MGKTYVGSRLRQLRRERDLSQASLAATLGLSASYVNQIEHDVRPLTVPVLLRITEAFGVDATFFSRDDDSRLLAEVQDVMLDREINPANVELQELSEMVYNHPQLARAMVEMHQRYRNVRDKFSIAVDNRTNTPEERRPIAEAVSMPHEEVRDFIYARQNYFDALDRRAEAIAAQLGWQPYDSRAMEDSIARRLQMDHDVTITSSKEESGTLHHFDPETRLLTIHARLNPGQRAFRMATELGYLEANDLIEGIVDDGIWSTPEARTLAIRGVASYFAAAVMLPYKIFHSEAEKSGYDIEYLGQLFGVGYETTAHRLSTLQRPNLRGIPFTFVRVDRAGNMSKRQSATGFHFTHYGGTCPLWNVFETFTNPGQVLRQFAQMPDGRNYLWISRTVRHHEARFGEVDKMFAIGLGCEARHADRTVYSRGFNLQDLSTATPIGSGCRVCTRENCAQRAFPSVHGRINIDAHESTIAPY
The experiment in a line: EMSA. The conditions noted are these: EMSA: 100 mM Tris/HCl pH 7.5, 20% glycerol, 100 mM KCl, 20 mM MgCl2, 1 mM EDTA, 30 min room temperature, DNA 5-61 nM; pull-down bead equilibration: 20 mM …. (In general: Mobility shift assays separate free from complexed probe on a gel.)
Regarding “CCCGATGTGGGTAGTGGCAGAATTTGCCGAACGATAGCCCAGAGTTCATAAGTTGTTAACCAAATTAGCCTGAGTTAGTCATTTCAAGGTCTTAGGTTTTTAAGTCGTGAGCAATCCGGAGGGAAACCG (double strand) [RcFc]”, the binding result is recorded as “binds”.

Regarding “CGTCTAGATAAGACCTTGAAATGACTAACTCAGGCTAATTTGGTTAACAACTTATGAACTCTGGGCTATCGTTCGGCAAATTCTGCCACTACCCACATCTCACTCGTAACATTTGGAGACTCTAATCACAAAAATCGGCAATTTTCGACCCCTGCGGAACGAAAATCACCGATTCTTATTATTCTCACAGGTTTTTAGCAAGTCTCTTTTTTACTCGAGGGG (double strand) [RF4]”, the binding result is on record as “binds more weakly”.

Take “CGTCTAGATGCGGACTGCTGGGAAGATGCACCTTCAGCAACGAGCTGACCGGTAACACCGGAAAGGCCCTCAATGGATGCAGCATCGGAAGAACCGGTGGAAGCTGCAGATGAGGAGGTGGAATCAGACTCATTGGAGTCGGAGCAAGCTACAAGAGCGAAGGAGCCTGCAGTAACTGCGCCCACAAGGGCGATGGAGCGCTTAAGAGTGAGGTTCACGGGGAAGCCTTTCCGGTTTAAGTGAAGACATCGTCTGAGCAGATCCTGTAGGCGGGCCTCGAGGGG (double strand) [R3F0]”: the binding result is recorded as “no binding”.
